The supplement of paper PMC9233669
This sample holds only a part of the variants without activity.

What was measured:
biotinyl-Phe-oxazolone = experiment: self-aminoacylation, catalytic enhancement (BFO) (fold over background); higher = more active; k-Seq, kA / k0A0; sequences stand for … in GGGAAUGGAUCCACAUCUACGAAUUC…UUCACUGCAGACUUGACGAAGCUG
How it was run: (§1)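 Mutagenized RNA pools with a 21-nt variable region (0.43 μM) were reacted with each biotinyl-aminoacyl-oxazolone at 2–1250 μM for 90 minutes at room temperature, in 50 μL HEPES/NaCl/KCl/MgCl2/CaCl2 buffer containing 5% acetonitrile at pH 6.9–7.0. RNA captured on streptavidin was quantified by triplicate qPCR and by Illumina sequencing. The fraction reacted for each sequence was fit to a pseudo-first-order model with bootstrapping, and catalytic enhancement is the median kA divided by the uncatalyzed rate, taken as the low-activity peak of a bimodal Gaussian fit.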

biotinyl-Ile-oxazolone = experiment: self-aminoacylation, catalytic enhancement (BIO) (fold over background); higher = more active; k-Seq, kA / k0A0; sequences stand for … in GGGAAUGGAUCCACAUCUACGAAUUC…UUCACUGCAGACUUGACGAAGCUG
How it was run: as §1

biotinyl-Met-oxazolone = experiment: self-aminoacylation, catalytic enhancement (BMO) (fold over background); higher = more active; k-Seq, kA / k0A0; sequences stand for … in GGGAAUGGAUCCACAUCUACGAAUUC…UUCACUGCAGACUUGACGAAGCUG
How it was run: as §1

biotinyl-Val-oxazolone = experiment: self-aminoacylation, catalytic enhancement (BVO) (fold over background); higher = more active; k-Seq, kA / k0A0; sequences stand for … in GGGAAUGGAUCCACAUCUACGAAUUC…UUCACUGCAGACUUGACGAAGCUG
How it was run: as §1

biotinyl-Leu-oxazolone = experiment: self-aminoacylation, catalytic enhancement (BLO) (fold over background); higher = more active; k-Seq, kA / k0A0; sequences stand for … in GGGAAUGGAUCCACAUCUACGAAUUC…UUCACUGCAGACUUGACGAAGCUG
How it was run: as §1

biotinyl-Trp-oxazolone = experiment: self-aminoacylation, catalytic enhancement (BWO) (fold over background); higher = more active; k-Seq, kA / k0A0; sequences stand for … in GGGAAUGGAUCCACAUCUACGAAUUC…UUCACUGCAGACUUGACGAAGCUG
How it was run: as §1

Sequence	self-aminoacylation (biotinyl-Phe-oxazolone)	self-aminoacylation (biotinyl-Ile-oxazolone)	self-aminoacylation (biotinyl-Met-oxazolone)	self-aminoacylation (biotinyl-Val-oxazolone)	self-aminoacylation (biotinyl-Leu-oxazolone)	self-aminoacylation (biotinyl-Trp-oxazolone)
AUUCACCUAGUACAUCGGGUG [Fam2.2 aminoacylation ribozyme variant]	10.4	1.55	2.21	1.65	2.71	2.21
AUUCACCUAGUGCAUCGGGUG [Fam2.2 aminoacylation ribozyme variant]	5.22	1.35	1.62	1.63	2.12	1.17
AUUCACCUAGUUCACCGGGUG [Fam2.2 aminoacylation ribozyme variant]	15.6	2.37	3.25	2.41	3.58	3.92
AUUCACCUAGUUCAUCGCGUG [Fam2.2 aminoacylation ribozyme variant]	35.7	3.27	4.88	2.99	6.91	5.66
AUUCACCUAGUUCAUCGGGUC [Fam2.2 aminoacylation ribozyme variant]	0.49	0.996	0.906	1.17	0.903	0.582
AUUCACCUAGUUCAUUGGGUG [Fam2.2 aminoacylation ribozyme variant]	18.9	1.85	2.54	1.62	3.47	2.83
AUUCACCUAGUUCUUCGGGUG [Fam2.2 aminoacylation ribozyme variant]	18.1	2.2	2.71	2.43	3.31	2.9
AUUCACCUAGUUGAUCGGGUG [Fam2.2 aminoacylation ribozyme variant]	23.9	2.5	3.66	2.79	4.3	4.26
AUUCACCUAUGUCUUCGGGUG [Fam2.2 aminoacylation ribozyme variant]	14.7	2.11	2.42	2.02	2.67	2.35
AUUCACCUCGAUCAUCGGGUG [Fam2.2 aminoacylation ribozyme variant]	39.4	3.11	4.77	3.18	5.94	3.99
AUUCACCUCGGACAUCGGGUG [Fam2.2 aminoacylation ribozyme variant]	40.1	3.09	4.76	4.74	6.78	5.08
AUUCACCUCGGUAAUCGGGUG [Fam2.2 aminoacylation ribozyme variant]	31.8	4.01	4.55	3.32	6.13	4.41
AUUCACCUCGGUCAGCGGGUG [Fam2.2 aminoacylation ribozyme variant]	28.3	3.13	4.51	3.37	5.84	4.8
AUUCACCUCGGUCAUCGCGUG [Fam2.2 aminoacylation ribozyme variant]	109	6.77	11.4	7.67	16	12.9
AUUCACCUCGGUCAUCGGGGG [Fam2.2 aminoacylation ribozyme variant]	12.8	2.66	3.13	2.67	2.98	2.72
AUUCACCUCGGUUAUCGGGUG [Fam2.2 aminoacylation ribozyme variant]	41.1	4.48	5.58	4.58	7.66	7.82
AUUCACCUCUGUCAUCGGGUG [Fam2.2 aminoacylation ribozyme variant]	54.5	3.8	7.32	4.06	10.1	7.31
AUUCACCUGGCUCAUCGGGUG [Fam2.2 aminoacylation ribozyme variant]	18.3	2.18	1.79	3.81	3.2	2.44
AUUCACCUGGGGCAUCGGGUG [Fam2.2 aminoacylation ribozyme variant]	36.1	4.42	5.8	6.59	5.93	7.38
AUUCACCUGGGUCAUCGGGUA [Fam2.2 aminoacylation ribozyme variant]	47.8	8.3	18.6	10.6	22.3	14.8
AUUCACCUGGGUGAUCGGGUG [Fam2.2 aminoacylation ribozyme variant]	24.1	3.9	4.39	4.45	4.89	6.7
AUUCACCUGGGUUAUCGGGUG [Fam2.2 aminoacylation ribozyme variant]	36.6	3.35	6.06	4	6.24	5.56
AUUCACCUUCGUCAUCGGGUG [Fam2.2 aminoacylation ribozyme variant]	14.9	2.12	2.3	2.38	3.28	2.79
AUUCACCUUGGUCAUCAGGUG [Fam2.2 aminoacylation ribozyme variant]	7.28	1.7	1.9	1.39	2.49	2.15
AUUCACCUUGGUCAUCGGGUA [Fam2.2 aminoacylation ribozyme variant]	5.21	2.5	3.09	2.98	2.64	2.75
AUUCACCUUGGUCCUCGGGUG [Fam2.2 aminoacylation ribozyme variant]	39.2	3.53	5.93	3.67	8.12	5.17

Sequence	self-aminoacylation (biotinyl-Phe-oxazolone)	self-aminoacylation (biotinyl-Ile-oxazolone)	self-aminoacylation (biotinyl-Met-oxazolone)	self-aminoacylation (biotinyl-Val-oxazolone)	self-aminoacylation (biotinyl-Leu-oxazolone)	self-aminoacylation (biotinyl-Trp-oxazolone)
AUUCACGUACGUCAUCGGGUG [Fam2.2 aminoacylation ribozyme variant]	79.8	6.46	12.2	6.9	12.8	9.47
AUUCACGUAGGUAAUCGGGUG [Fam2.2 aminoacylation ribozyme variant]	23.1	2.91	3.84	3.22	5.06	4.53
AUUCACGUAGGUCAUCAGGUG [Fam2.2 aminoacylation ribozyme variant]	5.34	1.99	2.77	2.24	2.7	2.88
AUUCACGUAGGUCCUCGGGUG [Fam2.2 aminoacylation ribozyme variant]	64.9	5.5	9.66	5.83	12.1	8.52
AUUCACUUAGGGCAUCGGGUG [Fam2.2 aminoacylation ribozyme variant]	24.5	2.91	3.03	2.72	3.98	3.48
AUUCACUUAGGUCAUCGGGUC [Fam2.2 aminoacylation ribozyme variant]	0.826	1.04	1.22	1.2	0.969	1.06
AUUCACUUAGGUCAUCGGUUG [Fam2.2 aminoacylation ribozyme variant]	0.69	0.87	0.764	0.831	0.901	0.519
AUUCACUUAGGUCCUCGGGUG [Fam2.2 aminoacylation ribozyme variant]	35.8	3.12	4.58	2.96	6.52	4.66
AUUCACUUUGGUCAUCGGGUG [Fam2.2 aminoacylation ribozyme variant]	65.4	4.75	8.05	4.71	9.51	7.2
AUUCAGCUAGGCCAUCGGGUG [Fam2.2 aminoacylation ribozyme variant]	72.1	6.95	10.1	6.97	12.4	10.1
AUUCAGCUAGGUCAUCGAGUG [Fam2.2 aminoacylation ribozyme variant]	8.78	2.01	2.24	1.95	2.86	1.98
AUUCAGCUAGGUCAUCGCGUG [Fam2.2 aminoacylation ribozyme variant]	54.8	4.48	6.28	5.79	6.83	5.71
AUUCAGCUAGGUCAUCGGGCG [Fam2.2 aminoacylation ribozyme variant]	17.5	2.48	3.2	2.79	3.92	3.83
AUUCAGCUAGGUCAUCGGGGG [Fam2.2 aminoacylation ribozyme variant]	16.7	3.18	2.69	2.23	3.48	2.72
AUUCAGCUAGGUCAUCGGGUA [Fam2.2 aminoacylation ribozyme variant]	29.7	3.18	3.6	3.3	3.67	2.76
AUUCAGCUUGGUCAUCGGGUG [Fam2.2 aminoacylation ribozyme variant]	14	2.75	3.5	3.37	3.63	4.05
AUUCAUCGAGGUCAUCGGGUG [Fam2.2 aminoacylation ribozyme variant]	83.3	7.05	12	6.97	14.9	10.1
AUUCAUCUAGGACAUCGGGUG [Fam2.2 aminoacylation ribozyme variant]	17.3	2.75	3.39	2.74	3.59	3.07
AUUCAUCUAGGUAAUCGGGUG [Fam2.2 aminoacylation ribozyme variant]	19.5	1.95	3.07	1.73	4.09	2.6
AUUCAUCUAGGUCAGCGGGUG [Fam2.2 aminoacylation ribozyme variant]	25.3	3.25	4.17	3.23	5.56	4.36
AUUCAUCUAGGUCAUCCGGUG [Fam2.2 aminoacylation ribozyme variant]	48.9	4.53	6.61	4.65	8.6	6.87
AUUCAUCUAGGUCAUCGCGUG [Fam2.2 aminoacylation ribozyme variant]	128	7.55	14.2	7.87	18.5	11.3
AUUCAUCUAGGUCAUCGGAUG [Fam2.2 aminoacylation ribozyme variant]	0.576	0.962	0.879	1.04	0.802	0.846
AUUCAUCUAGGUCAUCGGGAG [Fam2.2 aminoacylation ribozyme variant]	0.786	1.11	0.945	1.16	0.697	1.36
AUUCAUCUAGGUCAUCGGGCG [Fam2.2 aminoacylation ribozyme variant]	14.7	2.58	3.33	2.71	3.27	2.66
